Test results taken from patent US20220143148A1, “COMPOSITIONS AND METHODS FOR MODULATING CGRP SIGNALING TO REGULATE INTESTINAL INNATE LYMPHOID CELLS” (The Broad Institute, Inc., priority 2019, published 2022).

System: small intestinal immune cells
Test: Droplet-based scRNA-seq of small intestinal immune cells (LP and PP), OVA vs PBS, clustering and differential expression
Assay type: in vivo, mouse
Conditions: for percentage of expressing cells in OVA-treated group / LN (average fold change): cluster ID 12, LP
Text: To comprehensively characterize small intestinal immune cells, Applicants generated scRNA-Seq profiles for 58,067 immune cells collected from lamina propria (LP) and Peyer's patch (PP) regions at steady state and after induction of a type 2 inflammatory reaction to ovalbumin (OVA) (Brandt et al., 2003) (FIGS. 1A and 8A). To ensure sufficient representation of rare cells, Applicants combined a normalization strategy—removing by flow sorting either a portion of IgD+ naïve B cells, which are the most abundant cell type in PPs, or all CD19+ and CD3+ T cells (FIG. 8B, Methods)—with profiling of a sufficiently large number of cells number (P>0.99 to recover at least 15 cells from each cluster, Methods) by massively parallel scRNA-seq (Haber et al., 2017) (Methods). Applicants obtained 36,797 and 21,270 high quality cells passing initial filtering (Methods) from PP and LP regions, respectively.
Overall, Applicants annotated 27 cell subsets across the two compartments, spanning T cells, B cells, ILCs, dendritic cells (DCs), myeloid cells and stromal cells, in frequencies ranging from 0.07% to 14%. Briefly, Applicants first partitioned the cells from the PP regions by unsupervised clustering (Methods) into 46 clusters, retained the 97% of cells that were robustly assigned cell identities in each cluster (Methods), assigned the cells from the LP regions to the 46 clusters using a classifier (Methods), and visualized the data with scvis (Ding et al., 2018), a deep generative model-based method (FIGS. 1B and 8C, Methods). Next, Applicants identified genes that were differentially expressed between the cells in each cluster and the remaining cells (Table 1, Methods), as well as between pairs of clusters (Table 2), to elucidate identities of similar cell types/states. Applicants excluded from downstream analysis clusters mostly consisting of contaminants from epithelium, likely doublets, or cells with a small number of Unique Molecular Identifiers (UMIs) (FIGS. 1C and 8D), or lacking distinct markers (Methods). Altogether, Applicants retained 27 clusters spanning 85% of the cells and each associated with distinct marker genes (FIG. 8E, Methods).
To induce allergic reaction to OVA, 6 to 7 weeks old mice were sensitized twice, two weeks apart, with 50 μg of OVA plus 1 mg of aluminum potassium sulfate adjuvant via intraperitoneal injection. Two weeks later, mice were orally administered with 50 mg of OVA on every other day for a total of five times. 1 μg of α-CGRP peptide was administered simultaneously when indicated. Mice were deprived of food for 3-4 hours in cages with wood chip bedding for limiting antigen degradation in the stomach before each intragastric challenge.
Isolation of cells from Peyer's patches (PPs). Peyer's patches (PPs) were carefully dissected from the small intestine under a stereo microscope using a fine scissor, pierced once with a fine forcep. Tissues were digested in freshly made digestion buffer (RPMI-1640 containing 100 μg/ml Liberase™ and 50 μg/ml DNase I at 37° C. on a roto-mixer. After 15 min, tissues were very gently mixed using a 1 ml pipette. The supernatant was collected and added to ice-cold MACS buffer (pH 7.4; PBS plus 2% FCS and 2 mM EDTA). Pre-warmed (37° C.) fresh digestion buffer was added to the remaining tissues. After rotation at 37° C. for 15 min, the mixture was vigorously mixed using a 1 ml pipette for 1 min. Supernatants from the two steps were combined and passed through 70 μm filters and stained for FACS (below).
Isolation of cells from the lamina propria (LP). The small intestines were opened longitudinally and washed in ice-cold PBS. For scRNA-seq, roughly 0.5 cm of fragments from each of the distal, middle and proximal regions without visible PPs were collected. Epithelial cells were dissociated by tissue rotation in pre-warmed (37° C.) PBS containing 10 mM EDTA at 37° C. for 15 min, followed by additional incubation on ice for 15 min. Tissues were then shaken vigorously. […]

B1: OVA (protein, UniProt P01012 2-386, looked up)
Ovalbumin: GSIGAASMEFCFDVFKELKVHHANENIFYCPIAIMSALAMVYLGAKDSTRTQINKVVRFDKLPGFGDSIEAQCGTSVNVHSSLRDILNQITKPNDVYSFSLASRLYAEERYPILPEYLQCVKELYRGGLEPINFQTAADQARELINSWVESQTNGIIRNVLQPSSVDSQTAMVLVNAIVFKGLWEKAFKDEDTQAMPFRVTEQESKPVQMMYQIGLFRVASMASEKMKILELPFASGTMSMLVLLPDEVSGLEQLESIINFEKLTEWTSSNVMEERKIKVYLPRMKMEEKYNLTSVLMAMGITDVFSSSANLSGISSAESLKISQAVHAAHAEINEAGREVVGSAEAGVDAASVSEEFRADHPFLFCIKHIATNAVLFFGRCVSP
Rilpl2: LN (average fold change) (cluster ID 6, PP, OVA vs PBS): −0.158
Rnase6: LN (average fold change) (cluster ID 6, PP, OVA vs PBS): 0.160
Rnf19b: LN (average fold change) (cluster ID 6, PP, OVA vs PBS): −0.314
Rpn2: LN (average fold change) (cluster ID 6, PP, OVA vs PBS): 0.272
Runx3: LN (average fold change) (cluster ID 6, PP, OVA vs PBS): −0.200
S1pr4: LN (average fold change) (cluster ID 6, PP, OVA vs PBS): 0.331
Sell: LN (average fold change) (cluster ID 6, PP, OVA vs PBS): 0.172
Selplg: LN (average fold change) (cluster ID 6, PP, OVA vs PBS): 0.183
Sf3b1: LN (average fold change) (cluster ID 6, PP, OVA vs PBS): 0.237
Siah2: LN (average fold change) (cluster ID 6, PP, OVA vs PBS): −0.303
Skil: LN (average fold change) (cluster ID 6, PP, OVA vs PBS): −0.246
Sla2: LN (average fold change) (cluster ID 6, PP, OVA vs PBS): 0.243
Smc6: LN (average fold change) (cluster ID 6, PP, OVA vs PBS): −0.180
Socs3: LN (average fold change) (cluster ID 6, PP, OVA vs PBS): 0.385
Spsb2: LN (average fold change) (cluster ID 6, PP, OVA vs PBS): −0.508
Tgif1: LN (average fold change) (cluster ID 6, PP, OVA vs PBS): −0.548
Tnfaip8l2: LN (average fold change) (cluster ID 6, PP, OVA vs PBS): 0.307
Traf4: LN (average fold change) (cluster ID 6, PP, OVA vs PBS): −0.199
Trim25: LN (average fold change) (cluster ID 6, PP, OVA vs PBS): −0.239
VgIl4: LN (average fold change) (cluster ID 6, PP, OVA vs PBS): −0.419
Vps37b: LN (average fold change) (cluster ID 6, PP, OVA vs PBS): −0.292
Wnk1: LN (average fold change) (cluster ID 6, PP, OVA vs PBS): −0.262
Zc3h12a: LN (average fold change) (cluster ID 6, PP, OVA vs PBS): −0.495
Zfand5: LN (average fold change) (cluster ID 6, PP, OVA vs PBS): −0.220
Zfp36l2: LN (average fold change) (cluster ID 6, PP, OVA vs PBS): 0.365
percentage of expressing cells in OVA-treated group (gene Abhd17c): 0.52
LN (average fold change) (gene Abhd17c, OVA vs PBS): 0.599
percentage of expressing cells in OVA-treated group (gene Arf6): 0.429
LN (average fold change) (gene Arf6, OVA vs PBS): 0.610
percentage of expressing cells in OVA-treated group (gene Arl4a): 0.256
LN (average fold change) (gene Arl4a, OVA vs PBS): 0.781
percentage of expressing cells in OVA-treated group (gene Arl5c): 0.04
LN (average fold change) (gene Arl5c, OVA vs PBS): −1.873
percentage of expressing cells in OVA-treated group (gene Arpc2): 0.769
LN (average fold change) (gene Arpc2, OVA vs PBS): 0.318
percentage of expressing cells in OVA-treated group (gene BC031181): 0.365
LN (average fold change) (gene BC031181, OVA vs PBS): −0.512
percentage of expressing cells in OVA-treated group (gene Cbarp): 0.193
LN (average fold change) (gene Cbarp, OVA vs PBS): 0.886
percentage of expressing cells in OVA-treated group (gene Ccl1): 0.203
LN (average fold change) (gene Ccl1, OVA vs PBS): 1.335
percentage of expressing cells in OVA-treated group (gene Ccrl2): 0.192
LN (average fold change) (gene Ccrl2, OVA vs PBS): −0.742
percentage of expressing cells in OVA-treated group (gene Cd52): 0.581
LN (average fold change) (gene Cd52, OVA vs PBS): 0.644
percentage of expressing cells in OVA-treated group (gene Cited2): 0.176
LN (average fold change) (gene Cited2, OVA vs PBS): −0.724
percentage of expressing cells in OVA-treated group (gene Cntnap2): 0.074
LN (average fold change) (gene Cntnap2, OVA vs PBS): −1.008
percentage of expressing cells in OVA-treated group (gene Coq10b): 0.332
LN (average fold change) (gene Coq10b, OVA vs PBS): −0.690
percentage of expressing cells in OVA-treated group (gene Cox8a): 0.798
LN (average fold change) (gene Cox8a, OVA vs PBS): 0.285
percentage of expressing cells in OVA-treated group (gene Cwc25): 0.061
LN (average fold change) (gene Cwc25, OVA vs PBS): −1.439
percentage of expressing cells in OVA-treated group (gene Cycs): 0.531
LN (average fold change) (gene Cycs, OVA vs PBS): 0.561
percentage of expressing cells in OVA-treated group (gene Ddx5): 0.886
LN (average fold change) (gene Ddx5, OVA vs PBS): −0.276
percentage of expressing cells in OVA-treated group (gene Dtx1): 0.05
LN (average fold change) (gene Dtx1, OVA vs PBS): −1.600
percentage of expressing cells in OVA-treated group (gene Eef1a1): 0.997
LN (average fold change) (gene Eef1a1, OVA vs PBS): 0.236
percentage of expressing cells in OVA-treated group (gene Eef1b2): 0.709
LN (average fold change) (gene Eef1b2, OVA vs PBS): 0.395
percentage of expressing cells in OVA-treated group (gene Eef2): 0.927
LN (average fold change) (gene Eef2, OVA vs PBS): 0.240
percentage of expressing cells in OVA-treated group (gene Eif1): 0.996
LN (average fold change) (gene Eif1, OVA vs PBS): 0.152
percentage of expressing cells in OVA-treated group (gene Eif3e): 0.67
LN (average fold change) (gene Eif3e, OVA vs PBS): 0.416
percentage of expressing cells in OVA-treated group (gene Eif3h): 0.686
LN (average fold change) (gene Eif3h, OVA vs PBS): 0.298
percentage of expressing cells in OVA-treated group (gene Emd): 0.235
LN (average fold change) (gene Emd, OVA vs PBS): −0.729
